In patent publication US20250059270A1 (SESEN BIO, published 2025):
Numbering of substitutions follows the chain as printed. Names and notes keep the numbering of the source. Values belong to the binder of their own block, whether it stands above or below them.

Legend:
[1] = target: T1, human IL-6 (human, UniProt P05231 30-212); assay: functional epitope mapping by ELISA
T1 construct: Recombinant protein was R&D Systems 206-IL/CF where stated; It was biotinylated in the yeast display assays and amine-coupled to the chip in SPR; also called free IL-6; biotinylated human IL-6

[2] = target: T1, human IL-6; assay: cell-based or functional assay
[3] = target: T2, rabbit IL-6 (rabbit, UniProt Q9MZR1 27-241, limits assumed); assay: statement in the rabbit PK example; no assay named
T2 sequence (looked up): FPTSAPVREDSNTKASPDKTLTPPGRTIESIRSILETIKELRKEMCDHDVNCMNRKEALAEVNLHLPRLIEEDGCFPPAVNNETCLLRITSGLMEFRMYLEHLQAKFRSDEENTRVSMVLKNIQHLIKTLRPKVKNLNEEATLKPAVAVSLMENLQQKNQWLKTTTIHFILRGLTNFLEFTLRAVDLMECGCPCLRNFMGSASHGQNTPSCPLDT

[4] = target: T1, human IL-6; assay: cell-based or functional assay; remark: listed apart in the source
[5] = target: hyper IL-6; assay: cell-based or functional assay
[6] = target: T1, human IL-6; assay: yeast surface display of Fab, flow cytometry (APC-A = bound biotinylated IL-6, FITC-A = display) after overnight competition with 2 µM IL-6
[7] = target: T1, human IL-6; assay: yeast system (yeast display, biotinylated human IL-6); original humanized h64, before affinity maturation; yeast system
[8] = target: T3, dog IL-6 (dog, UniProt P41323 21-207); assay: monovalent affinity, method not stated
T3 construct: also called canine IL-6
T3 sequence (looked up): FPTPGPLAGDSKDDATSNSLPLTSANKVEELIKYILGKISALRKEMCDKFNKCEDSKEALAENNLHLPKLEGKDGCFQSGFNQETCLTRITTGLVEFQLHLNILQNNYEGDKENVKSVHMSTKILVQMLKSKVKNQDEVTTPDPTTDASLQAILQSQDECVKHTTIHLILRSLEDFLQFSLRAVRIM

[9] = target: T4, mouse IL-6 (mouse, UniProt P08505 25-211); assay: monovalent affinity, method not stated
T4 construct: also called rodent IL-6
T4 sequence (looked up): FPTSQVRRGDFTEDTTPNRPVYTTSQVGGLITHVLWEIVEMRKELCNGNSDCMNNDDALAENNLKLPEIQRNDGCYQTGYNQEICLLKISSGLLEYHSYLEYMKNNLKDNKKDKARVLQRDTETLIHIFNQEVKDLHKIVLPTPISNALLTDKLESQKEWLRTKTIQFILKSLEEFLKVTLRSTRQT

[10] = target: T2, rabbit IL-6; assay: monovalent affinity, method not stated
[11] = target: T5, rat IL-6 (rat, UniProt P20607 25-211); assay: monovalent affinity, method not stated
T5 construct: also called rodent IL-6
T5 sequence (looked up): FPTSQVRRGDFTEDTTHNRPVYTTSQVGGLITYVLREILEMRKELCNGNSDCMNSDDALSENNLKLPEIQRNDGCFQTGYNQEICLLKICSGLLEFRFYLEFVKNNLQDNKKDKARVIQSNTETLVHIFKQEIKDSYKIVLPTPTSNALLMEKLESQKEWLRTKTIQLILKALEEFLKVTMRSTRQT

B1: murine 64 antibody (hybridoma 64, subclone 64.58) (antibody, V domains shown)
VH: QVQLQQSGAELVRPGTSVKVSCKASGYAFSNYLIEWVKQRPGQGLEWIGVITPGSGTINYNEKFKGKAVLTADKSSSTVYMQLSSLTSDDSAVYFCAKSRWDPLYYYALEYWGQGTSVTVSS
VL: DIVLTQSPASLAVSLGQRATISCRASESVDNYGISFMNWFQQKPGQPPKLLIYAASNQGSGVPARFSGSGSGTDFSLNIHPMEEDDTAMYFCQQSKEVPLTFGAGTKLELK
notes: Murine monoclonal from a hybridoma; also called m64
binding result [1]: binds

B2: EBI-029 IgG2 (antibody)
heavy: QVQLVQSGAEVKKPGSSVKVSCKASGYALSNYLIEWVRQAPGQGLEWMGVITPGSGTINYAQKFQGRVTITADESTSTAYMELSSLRSEDTAVYYCARSRWDPLYYYALEYWGQGTTVTVSSASTKGPSVFPLAPCSRSTSESTAALGCLVKDYFPEPVTVSWNSGALTSGVHTFPAVLQSSGLYSLSSVVTVPSSNFGTQTYTCNVDHKPSNTKVDKTVERKCCVECPPCPAPPVAGPSVFLFPPKPKDTLMISRTPEVTCVVVDVSHEDPEVQFNWYVDGVEVHNAKTKPREEQFNSTFRVVSVLTVVHQDWLNGKEYKCKVSNKGLPAPIEKTISKTKGQPREPQVYTLPPSREEMTKNQVSLTCLVKGFYPSDIAVEWESNGQPENNYKTTPPMLDSDGSFFLYSKLTVDKSRWQQGNVFSCSVMHEALHNHYTQKSLSLSPGK
light: DIVMTQSPDSLAVSLGERATINCRASESVDNYGIPFMNWYQQKPGQPPKLLIYAASNRGSGVPDRFSGSGSGTDFTLTISSLQAEDVAVYYCQQSEEVPLTFGQGTKLEIKRTVAAPSVFIFPPSDEQLKSGTASVVCLLNNFYPREAKVQWKVDNALQSGNSQESVTEQDSKDSTYSLSSTLTLSKADYEKHKVYACEVTHQGLSSPVTKSFNRGEC
notes: also called 018IgG2
IC50, HEK-Blue IL6 reporter cells, 20 pM IL-6 [2]: 47 pM | binding result [3]: no binding

B3: EBI-031 (EBI-030 IgG2-H311A) (antibody)
heavy: B2 heavy with A28V, S30P, I51T, S55G, H311A
light: B2 light
notes: also called EBI-030-H311A
IC50, cis-signaling, HEK-Blue IL6 cells, 20 pM free IL-6 [4]: 14.2 pM | IC50, fold less than that of EBI-029, HEK-Blue IL6 [4]: > 75 fold | IC90, fold less than that of EBI-029, HEK-Blue IL6 [4]: ~350 fold | fold decrease in IC50 compared with EBI-029, HEK-Blue IL6 [4]: ~50 fold | fold decrease in IC90 compared with EBI-029, HEK-Blue IL6 [4]: > 100 fold | fold greater potency than tocilizumab, cis-signaling, HEK-Blue IL6 cells [4]: > 900 fold | IC50, trans-signaling, HEK-Blue IL6 cells, 200 pM hyper IL-6 [5]: 32 pM | IC50, HEK-Blue IL6 reporter cells, 20 pM IL-6 [2]: 0.6 pM | binding result [3]: no binding

B6: EBI-029 Fab variant I51T/S55G (Fab, V domains shown)
VH: QVQLVQSGAEVKKPGSSVKVSCKASGYALSNYLIEWVRQAPGQGLEWMGVTTPGGGTINYAQKFQGRVTITADESTSTAYMELSSLRSEDTAVYYCARSRWDPLYYYALEYWGQGTTVTVSS
VL: DIVMTQSPDSLAVSLGERATINCRASESVDNYGIPFMNWYQQKPGQPPKLLIYAASNRGSGVPDRFSGSGSGTDFTLTISSLQAEDVAVYYCQQSEEVPLTFGQGTKLEIKR
Fold increase in binding/display over wt [6]: 1.92 fold

B7: EBI-030 Fab (A28V/S30P/I51T/S55G) (Fab, V domains shown)
VH: B6 VH with A28V, S30P
VL: B6 VL
notes: IgG1 Fab; also called A28V/S30P/I51T/S55G (EBI-030)
Fold increase in binding/display over wt [6]: 4 fold

B8: h64 IgG (humanized 64, human IgG1) (antibody, V domains shown)
VH: B6 VH with L29F, T51I, G55S
VL: DIVMTQSPDSLAVSLGERATINCRASESVDNYGISFMNWYQQKPGQPPKLLIYAASNQGSGVPDRFSGSGSGTDFTLTISSLQAEDVAVYYCQQSKEVPLTFGQGTKLEIK
notes: Expressed as inline fusions with the human IgG1 constant domains; also called the original humanized molecule; original h64 antibody
Kd [7]: 0.343 nM

B10: EBI-029 Fab variant S30P/I51T/S55G (Fab, V domains shown)
VH: B6 VH with S30P
VL: B6 VL
Fold increase in binding/display over wt [6]: 2.52 fold

B11: EBI-029 Fab (020 Fab) (Fab, V domains shown)
VH: B6 VH with T51I, G55S
VL: B6 VL
notes: 018 Fab heavy chain with DKTHT added at the C-terminus; also called the 020 molecule; WT (EBI-029)
binding result [3]: no binding

Now from value to binder:

binding result [3]: no binding
B4: EBI-029 IgG2-H311A (antibody)
heavy: B2 heavy with H311A
light: B2 light
notes: also called EBI-029-H311A

IC50, fold less than that of EBI-029, HEK-Blue IL6 (EBI-030 produced in HEK cells) [4]: > 50 fold | IC90, fold less than that of EBI-029, HEK-Blue IL6 (EBI-030 produced in HEK cells) [4]: ~4000 fold | fold decrease in IC50 compared with EBI-029, HEK-Blue IL6 [4]: ~50 fold | fold decrease in IC90 compared with EBI-029, HEK-Blue IL6 [4]: > 100 fold | IC50, HEK-Blue IL6 reporter cells, 20 pM IL-6 (EBI-030 CHO, stable CHO pool) [2]: 1.4 pM | IC50, HEK-Blue IL6 reporter cells, 20 pM IL-6 (EBI-030 from HEK-6E cells) [2]: 0.9 pM | binding result [3]: no binding
B5: EBI-030 IgG2 (antibody)
heavy: B2 heavy with A28V, S30P, I51T, S55G
light: B2 light

Kd [8]: > 1000 nM | Kd [9]: > 1000 nM | Kd [10]: > 1000 nM | Kd [11]: > 1000 nM
B9: 018 Fab (Fab, V domains shown)
VH: B6 VH with T51I, G55S
VL: B6 VL
notes: Fab with CK and IgG1 CH1 domains; also called Fab fragment of the h64-1.4 humanized antibody

Fold increase in binding/display over wt [6]: 3.1 fold
B12: EBI-029 Fab variant A28V/I51T/S55G (Fab, V domains shown)
VH: B6 VH with A28V
VL: B6 VL
